Source: patent US8673848 (Novartis, dated 2014)
*1 amine or outer side, *2 acyl side, *3 side chain or, on linkers, in order; H or OH if unused. Bridges are numbered along the chain shown (N, C = ends). [ ]: non-standard residue; d: D form. The star is where a group is joined. ‑S‑CH2‑C(:Z)‑CH2‑S‑ = thioether linker between two Cys sulfurs, S-CH2-C(=Z)-CH2-S, where Z is an oxime formed with (S)-1-(aminooxy)-19-carboxy-2,7,16,21-tetraoxo-9,12-dioxa-3,6,15,20-tetraazaoctatriacontan-38-oic acid (a fatty acid derivative, O=C(O)CCCCCCCCCCCCCCCCC(=O)N[C@@H](CCC(=O)NCCOCCOCC(=O)NCCNC(=O)CON=C(C[*:1])C[*:2])C(=O)O; Myristoyl = CCCCCCCCCCCCCC(=O)*; pGlu = O=C1CC[C@@H](C(=O)O)N1; Nle = CCCC[C@H](N)C(=O)O; AEEA = NCCOCCOCC(=O)O; Aib = CC(C)(N)C(=O)O

T1: human APJ receptor (hAPJ) (human, UniProt P35414 1-380)
T1 sequence (looked up): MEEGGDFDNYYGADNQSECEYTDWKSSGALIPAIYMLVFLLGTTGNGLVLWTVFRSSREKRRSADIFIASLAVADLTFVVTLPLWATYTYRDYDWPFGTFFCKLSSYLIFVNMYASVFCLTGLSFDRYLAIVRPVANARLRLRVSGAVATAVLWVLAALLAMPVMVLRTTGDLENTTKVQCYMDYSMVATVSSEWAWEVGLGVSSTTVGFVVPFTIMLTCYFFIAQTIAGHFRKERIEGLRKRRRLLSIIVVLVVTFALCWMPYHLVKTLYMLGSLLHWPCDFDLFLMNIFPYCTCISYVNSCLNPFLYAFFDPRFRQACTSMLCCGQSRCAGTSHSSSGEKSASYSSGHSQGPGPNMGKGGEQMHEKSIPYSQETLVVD

B1: Example 65: pE-R-P-R-L-C-H-K-G-P-Nle-C-F-OH with a monosulfide linkage between the 2 cysteines at position 6 and 12 (peptide)
peptide: [pGlu]RPRLCHKGP[Nle]CF-OH
modifications: bridge 6-12; not fully specified (bridges); printed as pE-R-P-R-L-C-H-K-G-P-Nle-C-F-OH
B2: Example 62: pE-R-P-R-L-C-H-K-G-P-Nle-C-F-NH2 (peptide)
peptide: [pGlu]RPRLCHKGP[Nle]CF-NH2
modifications: disulfide 6-12
SMILES: CCCC[C@@H]1NC(=O)[C@@H]2CCCN2C(=O)CNC(=O)[C@H](CCCCN)NC(=O)[C@H](Cc2c[nH]cn2)NC(=O)[C@@H](NC(=O)[C@H](CC(C)C)NC(=O)[C@H](CCCNC(=N)N)NC(=O)[C@@H]2CCCN2C(=O)[C@H](CCCNC(=N)N)NC(=O)[C@@H]2CCC(=O)N2)CSSC[C@@H](C(=O)N[C@@H](Cc2ccccc2)C(N)=O)NC1=O
B3: Example 60: Myristoyl-O2Oc-O2Oc-O2Oc-O2Oc-Q-R-P-R-L-C-H-K-G-P-Nle-C-f-OH (peptide)
peptide: Myristoyl-[AEEA][AEEA][AEEA][AEEA]QRPRLCHKGP[Nle]C[dF]-OH
modifications: disulfide 10-16
SMILES: CCCCCCCCCCCCCC(=O)NCCOCCOCC(=O)NCCOCCOCC(=O)NCCOCCOCC(=O)NCCOCCOCC(=O)N[C@@H](CCC(N)=O)C(=O)N[C@@H](CCCNC(=N)N)C(=O)N1CCC[C@H]1C(=O)N[C@@H](CCCNC(=N)N)C(=O)N[C@@H](CC(C)C)C(=O)N[C@H]1CSSC[C@@H](C(=O)N[C@H](Cc2ccccc2)C(=O)O)NC(=O)[C@H](CCCC)NC(=O)[C@@H]2CCCN2C(=O)CNC(=O)[C@H](CCCCN)NC(=O)[C@H](Cc2c[nH]cn2)NC1=O
B4: Example 6: pE-R-P-R-L-K-F-K-G-P-Nle-f (peptide)
peptide: [pGlu]RPRLKFKGP[Nle][dF]
modifications: lactam 6-C
SMILES: CCCC[C@@H]1NC(=O)[C@@H]2CCCN2C(=O)CNC(=O)[C@H](CCCCN)NC(=O)[C@H](Cc2ccccc2)NC(=O)[C@@H](NC(=O)[C@H](CC(C)C)NC(=O)[C@H](CCCNC(=N)N)NC(=O)[C@@H]2CCCN2C(=O)[C@H](CCCNC(=N)N)NC(=O)[C@@H]2CCC(=O)N2)CCCCNC(=O)[C@@H](Cc2ccccc2)NC1=O
B5: Example 66: pE-R-P-R-L-C-H-K-G-P-Nle-C-F-OH with a -S-CH2-C(=Z)-CH2-S- linkage between the 2 cysteines at position 6 and 12 (peptide)
peptide: [pGlu]RPRLCHKGP[Nle]CF-OH
modifications: linker 6-12 via ‑S‑CH2‑C(:Z)‑CH2‑S‑; also: Z = oxime with (S)-1-(aminooxy)-19-carboxy-2,7,16,21-tetraoxo-9,12-dioxa-3,6,15,20-tetraazaoctatriacontan-38-oic acid on the linker ketone
B6: Example 61: pE-R-P-R-L-C-H-K(Myristoyl)-G-P-Nle-C-F-OH (peptide)
peptide: [pGlu]RPRLCHK(Myristoyl)GP[Nle]CF-OH
modifications: disulfide 6-12
SMILES: CCCCCCCCCCCCCC(=O)NCCCC[C@@H]1NC(=O)[C@H](Cc2c[nH]cn2)NC(=O)[C@@H](NC(=O)[C@H](CC(C)C)NC(=O)[C@H](CCCNC(=N)N)NC(=O)[C@@H]2CCCN2C(=O)[C@H](CCCNC(=N)N)NC(=O)[C@@H]2CCC(=O)N2)CSSC[C@@H](C(=O)N[C@@H](Cc2ccccc2)C(=O)O)NC(=O)[C@H](CCCC)NC(=O)[C@@H]2CCCN2C(=O)CNC1=O
B7: Example 9: pE-R-P-R-L-C-Aib-K-G-P-Nle-C-F-OH (peptide)
peptide: [pGlu]RPRLC[Aib]KGP[Nle]CF-OH
modifications: disulfide 6-12
SMILES: CCCC[C@@H]1NC(=O)[C@@H]2CCCN2C(=O)CNC(=O)[C@H](CCCCN)NC(=O)C(C)(C)NC(=O)[C@@H](NC(=O)[C@H](CC(C)C)NC(=O)[C@H](CCCNC(=N)N)NC(=O)[C@@H]2CCCN2C(=O)[C@H](CCCNC(=N)N)NC(=O)[C@@H]2CCC(=O)N2)CSSC[C@@H](C(=O)N[C@@H](Cc2ccccc2)C(=O)O)NC1=O
B8: Example 63: pE-R-P-R-L-C-H-K-G-P-Nle-C-NH2 (peptide)
peptide: [pGlu]RPRLCHKGP[Nle]C-NH2
modifications: disulfide 6-12
SMILES: CCCC[C@@H]1NC(=O)[C@@H]2CCCN2C(=O)CNC(=O)[C@H](CCCCN)NC(=O)[C@H](Cc2c[nH]cn2)NC(=O)[C@@H](NC(=O)[C@H](CC(C)C)NC(=O)[C@H](CCCNC(=N)N)NC(=O)[C@@H]2CCCN2C(=O)[C@H](CCCNC(=N)N)NC(=O)[C@@H]2CCC(=O)N2)CSSC[C@@H](C(N)=O)NC1=O

These binders were tested against T1, human APJ receptor (hAPJ) (assay: cell-based or functional assay).

Row | Binder | hAPJ Ca2+ Flux EC50
1 | B1 | 1.1 nM
2 | B2 | 3.32 nM
3 | B3 | 8.15 nM
4 | [pGlu]RPRLCHKGP[Nle]CF-OH (disulfide 6-12) [Example 8: pE-R-P-R-L-C-H-K-G-P-Nle-C-F-OH] | 1.04 nM
5 | B4 | 22 nM
6 | B5 | 589 nM
7 | cyclo(QRPRLCFKGP[Nle]CFGG) (disulfide 6-12) [Example 7: Q-R-P-R-L-C-F-K-G-P-Nle-C-F-G-G] | 90.8 nM
8 | B6 | 89.2 nM
9 | B7 | 2.16 nM
10 | [pGlu]RPRLCHKGP[Nle]CF-OH (linker 6-12 via ‑S‑CH2‑C(O)CH2‑S‑) | 6.3 nM
11 | B8 | 3.18 nM
